Here are results for 103 substances from the supplement of paper PMC12042874.

This data set is described as follows: amyloid nucleation score (Sup35N fusion, yeast selection) (log enrichment); library NNK2; higher = more nucleation; inactive = no reads after selection. A digest of the protocol:
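The nucleation score is a DiMSum log enrichment of output over input reads, centred on the mode score of non-aggregating sequences. Sequences under 100 input reads were excluded, and reads came from Illumina sequencing of plasmid inserts. Psi-negative yeast expressing Sup35N fused to peptides of 20 random codons were induced with 100 μM copper sulfate for 24 hours and grown 7 days at 30°C on medium lacking adenine and uracil. Random libraries had three technical output replicates.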

± gives the uncertainty stated by the source.

In turn, FPLIDTYLEFMEPNGYWNSS registered an amyloid nucleation score of 0.516 ± 0.81.

ECRRF gave an amyloid nucleation score of 2.78 ± 0.12.

Substance NLNYLVLTYDVSVWNVYVVL showed an amyloid nucleation score of 8.17 ± 0.046.

On to KGFRMRAWWRVGVLDCDAGT, for which the amyloid nucleation score was found to be 0.082 ± 1.1.

The substance GGLCYEQNFYRYKKRRVLEL had an amyloid nucleation score of 3.47 ± 0.12.

TITMFHYLRSLSGNSDYGLG displayed an amyloid nucleation score of 2.31 ± 0.1.

As to DFFVLVGYGKVK, the amyloid nucleation score amounted to 0.595 ± 0.53.

In the case of PRCNGHY, the amyloid nucleation score result was “inactive”.

NSICSNLDDSCEAKRTSRFH displayed an amyloid nucleation score of -0.113 ± 0.65.

The substance MSPLH had an amyloid nucleation score of -0.181 ± 0.39.

Substance FLLCIRLRVNNNVRNN returned an amyloid nucleation score of -0.763 ± 1.1.

With DYLIAIQLYDFYVHGLIKYR, the amyloid nucleation score was -0.853 ± 0.78.

LMSKKGNGIGLEQPLLSSDT gave an amyloid nucleation score of -0.778 ± 1.1.

FANGRFMNPSHGLYSLPLKR gave an amyloid nucleation score of 0.09 ± 0.51.

VLIALKLFWIVQWYICAICV registered an amyloid nucleation score of -0.099 ± 0.39.

Take ENGAKVLVIVYKGYPLVPWV: the amyloid nucleation score was -0.089 ± 0.46.

For LEMFYRVPLPRCKTYLQFRC, the amyloid nucleation score turned out to be 0.471 ± 0.62.

NEFIEVALSLYRVNCQRNFI came in with an amyloid nucleation score of -1.5 ± 0.53.

Take AHLRITFSMSMNMQLFMVLR: the amyloid nucleation score was found to be 0.587 ± 0.48.

The substance RGSGSVMNSGYEAASRRLGG showed an amyloid nucleation score of -0.12 ± 0.46.

AMLLNILVPYVYSKTGRGPV displayed an amyloid nucleation score of 1.88 ± 0.33.

Take YWNQNCELTVFSN: the amyloid nucleation score entry was “inactive”.

As for VNSKNYV, the amyloid nucleation score is -0.075 ± 0.39.

TCIGHFSNSQYN: the amyloid nucleation score entry was “inactive”.

As to NVCLGFFPD, the amyloid nucleation score was 0.282 ± 0.8.

For CHRLVLQLI, the amyloid nucleation score result was “inactive”.

PMVFNHG displayed an amyloid nucleation score of -0.398 ± 1.

Turning to SLVLLNRSANWIDLLNKQQD, the amyloid nucleation score came to 3.62 ± 0.12.

KERAYRGNQAKKRLKTALFY: the amyloid nucleation score entry is “inactive”.

Substance HTQSLVRVCWIYIRLPRSTP displayed an amyloid nucleation score of 0.393 ± 0.2.

On to SSSREALCRKHDGVL, for which the amyloid nucleation score is 0.905 ± 0.45.

As for TCGRYSYSWVFSESKS, the amyloid nucleation score result was “inactive”.

TLTPNNSTCTGVCFCLSYNQ displayed an amyloid nucleation score of 9.475 ± 0.059.

In turn, RTDFMHTIFLPCRGHGMSWF yielded an amyloid nucleation score of 0.91 ± 0.35.

For TVSRIMLGNGKYFKHVL, the amyloid nucleation score is 2.3 ± 0.064.

Regarding YSYWLSILRNVEL, the amyloid nucleation score turned out to be 4.18 ± 0.079.

In the case of HSLLGPGPVPSYPQFSSPGR, the amyloid nucleation score result is “inactive”.

YVCLRRWNWRMKLTCVSKLG had an amyloid nucleation score of 0.734 ± 0.35.

Substance RNSIYCTND had an amyloid nucleation score of -0.679 ± 0.47.

With IFSLP, the amyloid nucleation score is -0.464 ± 0.5.

With GLISIAVSRRVYLFCLVAPV, the amyloid nucleation score is -0.541 ± 0.79.

On to NKLWFWMGHTMSVEFDLIDN, for which the amyloid nucleation score result was “inactive”.

Turning to SFKRFQ, the amyloid nucleation score was -0.347 ± 1.1.

In turn, SSNSEDDGNWMMLLSNKYRI yielded an amyloid nucleation score of 0.559 ± 0.27.

In turn, RAACFSAAHRTDWTWPDGDM registered an amyloid nucleation score of 2.49 ± 0.19.

GYGSSYLMQARSNRRISVFL displayed an amyloid nucleation score of -0.758 ± 0.79.

Consider FSCEACIFLLYSYMFMNL, for which the amyloid nucleation score is -0.522 ± 0.55.

KKSFGLLENIMVSDLFPNSS: the amyloid nucleation score entry was “inactive”.

FMLNYERL displayed an amyloid nucleation score of -1.08 ± 0.42.

Turning to VEFLPCLSIYSACFSLDGST, the amyloid nucleation score is -1.37 ± 0.44.

Consider IICNLKISSMQDKGVMQAVF, for which the amyloid nucleation score was -0.871 ± 0.28.

In turn, FKFLADVVPWFSSRWSHLMM came in with an amyloid nucleation score of -0.867 ± 0.37.

NRHWRFG showed an amyloid nucleation score of 2.7 ± 0.11.

Consider TFSFFATVDQMFCCVGRCEW, for which the amyloid nucleation score was 8.132 ± 0.03.

With IIPRMLDMPLSVWQEIIRFW, the amyloid nucleation score is 0.45 ± 0.5.

Substance CTWIYTLTFFARNS yielded an amyloid nucleation score of 0.01 ± 0.55.

Take YVMNQPDKVWSHIESGNKRH: the amyloid nucleation score was -1.34 ± 0.62.

Regarding LGDLFYYFTVRK, the amyloid nucleation score is 0.389 ± 0.66.

In the case of CPGRRTISFYSFSFVFRSMN, the amyloid nucleation score result is “inactive”.

In turn, CAFRASFLLT displayed an amyloid nucleation score of 0.04 ± 0.34.

As to CGFIVKTAWGLVLATLGATY, the amyloid nucleation score came out at 2.54 ± 0.11.

The substance PYYYRLDFWHHNKKYNFGYY came in with an amyloid nucleation score of -1.16 ± 1.1.

With NYDGCRWWW, the amyloid nucleation score result was “inactive”.

ISDSRLRKCVAPHSRDSGGH had an amyloid nucleation score of 1.96 ± 0.19.

As to DNQGSLDNSSLCTVYSGFSV, the amyloid nucleation score entry is “inactive”.

Regarding VIPYVIQSYWMGMN, the amyloid nucleation score was -1.56 ± 0.75.

CQSCYYHNR returned an amyloid nucleation score of -0.77 ± 0.21.

For VYVFYVSIKVAVFTLTM, the amyloid nucleation score was found to be 3.92 ± 0.041.

VSLWVIKASRVNPFYSPGGK yielded an amyloid nucleation score of 0.301 ± 0.64.

Substance WNIWFTVCYCKHLSKSKGSD came in with an amyloid nucleation score of 8.667 ± 0.033.

Substance SVFSYQYETKVGSQNLLEYI gave an amyloid nucleation score of -0.751 ± 1.1.

Turning to LEGFTRA, the amyloid nucleation score was -0.909 ± 0.36.

As to HFITCFLDRHGALVCYCSES, the amyloid nucleation score stood at 4.76 ± 0.11.

YSEVTVRSSAAL gave an amyloid nucleation score of 0.863 ± 0.29.

Regarding GYCLSVTSR, the amyloid nucleation score came out at 0.641 ± 0.74.

GRCTRERW showed an amyloid nucleation score of 0.123 ± 0.32.

Turning to FRQFS, the amyloid nucleation score worked out at 0.285 ± 1.

For TGRTTF, the amyloid nucleation score entry is “inactive”.

VNDLLTPCGIHLQPVWDYES: the amyloid nucleation score was -0.013 ± 0.49.

The substance RHTSMSGCMTVIMTGCEIPR displayed an amyloid nucleation score of 1.13 ± 0.39.

Take PVYRACILIDM: the amyloid nucleation score was determined as 3.18 ± 0.054.

Take NCLYICVCGLCMFQKLRC: the amyloid nucleation score was -0.246 ± 0.76.

Regarding PRQHYSNRGFCFSFILGVGM, the amyloid nucleation score was -0.327 ± 0.34.

Turning to INSLTKAVYYSSHYYPVSLS, the amyloid nucleation score entry was “inactive”.

CGMNGKTEGEWMGYRKDEGE gave an amyloid nucleation score of 6.03 ± 0.077.

Substance SDRMELWKNESRLYIGMAVR showed an amyloid nucleation score of 0.451 ± 0.49.

VFGKGQWVDLIRRREDVYTN displayed an amyloid nucleation score of -0.759 ± 1.1.

TFGLWPPQGMAIRGMRVNMN: the amyloid nucleation score result was “inactive”.

Substance AVMMCIASIDFRVWYLG registered an amyloid nucleation score of 1.53 ± 0.15.

Consider SMTVKDSGFMSIFGFSTVRL, for which the amyloid nucleation score was -0.854 ± 0.48.

Take LFWHLHSNFIADVLLNVRLC: the amyloid nucleation score was 1.13 ± 0.53.

In the case of IRCVGRVVFCCNFS, the amyloid nucleation score was found to be 9.965 ± 0.078.

As for HHIGGMIS, the amyloid nucleation score was -0.09 ± 0.3.

In turn, QLLRCNRRSKMLDR yielded an amyloid nucleation score of -0.156 ± 0.76.

For FYGGDA, the amyloid nucleation score was 0.005 ± 0.39.

As for TNKYFCTFGAHGARDLQMHV, the amyloid nucleation score result was “inactive”.

NEVRYLGTVLACQQRLHTWM gave an amyloid nucleation score of 1.06 ± 0.29.

CLWSSNSSSIWDIGRYFRR displayed an amyloid nucleation score of -1.21 ± 0.31.

Take MGVSNIDIVSRILNPGAAAS: the amyloid nucleation score was found to be 1.36 ± 0.41.

Substance CVREIYYVFCINSPVIAMDC gave an amyloid nucleation score of 6.149 ± 0.038.

With TDVIYYGYLSRRLQVYVLPS, the amyloid nucleation score was -1.55 ± 1.1.

For CFFPDSVTTELKKIKTL, the amyloid nucleation score is -0.692 ± 0.41.

In turn, STFLKATYRSHRRHW yielded an amyloid nucleation score of 0.962 ± 0.39.
